Laboratory results published in patent US20260152727A1.
Values joined by “and” are separate entries in the source; they are usually repeats but may differ in a detail not shown here. Identical values can stand only once.

Target: RSV fusion (F) protein (prefusion F, on recombinant RSV strain A2 virions) (respiratory syncytial virus (strain A2)) (UniProt P03420)
Test: cell-based or functional assay

Sequence of UniProt P03420 (P03420 26-574): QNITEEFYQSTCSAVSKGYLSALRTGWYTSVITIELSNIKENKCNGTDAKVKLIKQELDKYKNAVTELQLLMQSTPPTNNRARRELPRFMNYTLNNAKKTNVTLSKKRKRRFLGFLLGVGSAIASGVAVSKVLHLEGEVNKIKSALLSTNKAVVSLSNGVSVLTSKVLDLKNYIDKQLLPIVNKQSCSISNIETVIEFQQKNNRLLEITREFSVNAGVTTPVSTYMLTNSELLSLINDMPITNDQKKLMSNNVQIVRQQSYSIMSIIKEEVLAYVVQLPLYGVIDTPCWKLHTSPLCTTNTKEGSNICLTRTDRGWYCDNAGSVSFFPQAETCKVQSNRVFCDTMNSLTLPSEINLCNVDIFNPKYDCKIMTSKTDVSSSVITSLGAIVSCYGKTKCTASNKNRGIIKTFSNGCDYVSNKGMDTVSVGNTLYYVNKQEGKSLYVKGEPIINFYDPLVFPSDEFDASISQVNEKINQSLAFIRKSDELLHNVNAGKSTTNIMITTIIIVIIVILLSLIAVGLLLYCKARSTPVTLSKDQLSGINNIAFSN

## anti-prefusion F antibody D25
  complete neutralization of 300 PFU of RSV-HRP (HRP signal OD490, HEp-2 cells): 370 ng/mL
  complete neutralization of 300 PFU of RSV-Lucia (secreted luciferase, luminometer) (antibody dilution (1:x, of 1 mg/ml)): 2700
  highest dilution at which the antibody negatively impacted RSV infectivity (RSV-Lucia): 5 ng/mL and 1.7 ng/mL
  highest dilution at which the antibody negatively impacted RSV-HRP infectivity: 5 ng/mL
